Fold improvement of Env binding affinity relative to the UCA data for one substance are collected here from EP4580670A2.

The test addresses CH848 day 949 SOSIP Env trimer (soluble SOSIP trimer derived from a virus isolated from the CH848 individual at day 949 post infection) (HIV-1). The experiment in a line: method not stated; affinities shown in Figure 1B; reference DH270 UCA.

For the substance DH270.I5 Fab, the fold improvement of Env binding affinity relative to the UCA amounted to 8 fold.
